Experimental data taken from the supplement of paper PMC9112550, “Optimization of the antimicrobial peptide Bac7 by deep mutational scanning” (BMC Biology, 2022).

What follows are sequences tested on Escherichia coli TOP10 (assay: shrunken log2 fold change of peptide-encoding DNA abundance (4.5 h post-induction vs induction); higher = less antimicrobial activity (less host growth inhibition)). Conditions: time post-induction: 4.5 h; library: site-saturation at positions 5, 18, 19, 20.
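Further: peptides expressed intracellularly from a pBAD plasmid library in pooled LB shake-flask culture, induced with 0.3% L-arabinose, DNA abundance read by NGS, three biological replicates, DESeq2 with apeglm shrinkage.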

Row | Sequence | shrunken log2 fold change
1 | RRIRERPPRLPRPRPRPEHQPRP | 0.0588
2 | RRIRERPPRLPRPRPRPEHYPRP | -0.454
3 | RRIRERPPRLPRPRPRPEISPRP | -0.407
4 | RRIRERPPRLPRPRPRPEIVPRP | 0.00903
5 | RRIRERPPRLPRPRPRPEKGPRP | -0.0493
6 | RRIRERPPRLPRPRPRPELQPRP | -0.0137
7 | RRIRERPPRLPRPRPRPEMAPRP | 0.414
8 | RRIRERPPRLPRPRPRPEMDPRP | 0.125
9 | RRIRERPPRLPRPRPRPEMSPRP | 0.0528
10 | RRIRERPPRLPRPRPRPENEPRP | -0.0522
11 | RRIRERPPRLPRPRPRPESAPRP | 0.056
12 | RRIRERPPRLPRPRPRPESMPRP | -0.46
13 | RRIRERPPRLPRPRPRPETMPRP | 0.0664
14 | RRIRERPPRLPRPRPRPEVHPRP | 0.116
15 | RRIRERPPRLPRPRPRPEWIPRP | 0.064
16 | RRIRERPPRLPRPRPRPEYIPRP | -0.177
17 | RRIRERPPRLPRPRPRPFARPRP | 0.102
18 | RRIRERPPRLPRPRPRPFCIPRP | -0.346
19 | RRIRERPPRLPRPRPRPFCYPRP | -0.927
20 | RRIRERPPRLPRPRPRPFDRPRP | -0.0163
21 | RRIRERPPRLPRPRPRPFENPRP | -0.01
22 | RRIRERPPRLPRPRPRPFHLPRP | -0.173
23 | RRIRERPPRLPRPRPRPFHNPRP | -0.413
24 | RRIRERPPRLPRPRPRPFHTPRP | -0.0574
25 | RRIRERPPRLPRPRPRPFILPRP | -0.784

Row | Sequence | shrunken log2 fold change
26 | RRIRERPPRLPRPRPRPFISPRP | -0.0623
27 | RRIRERPPRLPRPRPRPFLGPRP | -0.284
28 | RRIRERPPRLPRPRPRPFLKPRP | -0.0233
29 | RRIRERPPRLPRPRPRPFMDPRP | -0.243
30 | RRIRERPPRLPRPRPRPFMLPRP | -0.511
31 | RRIRERPPRLPRPRPRPFMQPRP | -0.178
32 | RRIRERPPRLPRPRPRPFNRPRP | -0.0972
33 | RRIRERPPRLPRPRPRPFPIPRP | 0.118
34 | RRIRERPPRLPRPRPRPFPTPRP | -0.573
35 | RRIRERPPRLPRPRPRPFQEPRP | -0.0402
36 | RRIRERPPRLPRPRPRPFQLPRP | 0.053
37 | RRIRERPPRLPRPRPRPFREPRP | -0.235
38 | RRIRERPPRLPRPRPRPFRFPRP | -0.185
39 | RRIRERPPRLPRPRPRPFVLPRP | -0.358
40 | RRIRERPPRLPRPRPRPFWFPRP | -0.303
41 | RRIRERPPRLPRPRPRPFYDPRP | -0.106
42 | RRIRERPPRLPRPRPRPFYKPRP | 0.187
43 | RRIRERPPRLPRPRPRPFYWPRP | -0.158
44 | RRIRERPPRLPRPRPRPGAPPRP | 0.301
45 | RRIRERPPRLPRPRPRPGARPRP | 0.255
46 | RRIRERPPRLPRPRPRPGASPRP | 0.075
47 | RRIRERPPRLPRPRPRPGDIPRP | -0.072
48 | RRIRERPPRLPRPRPRPGDNPRP | -0.0779
49 | RRIRERPPRLPRPRPRPGDPPRP | 0.103
50 | RRIRERPPRLPRPRPRPGEPPRP | -0.107

Row | Sequence | shrunken log2 fold change
51 | RRIRERPPRLPRPRPRPGFPPRP | 0.176
52 | RRIRERPPRLPRPRPRPGGFPRP | 0.292
53 | RRIRERPPRLPRPRPRPGIKPRP | -0.587
54 | RRIRERPPRLPRPRPRPGISPRP | -0.017
55 | RRIRERPPRLPRPRPRPGLRPRP | 0.0748
56 | RRIRERPPRLPRPRPRPGLYPRP | -0.233
57 | RRIRERPPRLPRPRPRPGMRPRP | 0.471
58 | RRIRERPPRLPRPRPRPGNIPRP | -0.989
59 | RRIRERPPRLPRPRPRPGNKPRP | -0.00852
60 | RRIRERPPRLPRPRPRPGNYPRP | -0.264
61 | RRIRERPPRLPRPRPRPGPDPRP | -0.118
62 | RRIRERPPRLPRPRPRPGPQPRP | 0.231
63 | RRIRERPPRLPRPRPRPGPTPRP | 0.215
64 | RRIRERPPRLPRPRPRPGQIPRP | 0.0685
65 | RRIRERPPRLPRPRPRPGQRPRP | -0.0192
66 | RRIRERPPRLPRPRPRPGRNPRP | -0.237
67 | RRIRERPPRLPRPRPRPGSLPRP | -0.431
68 | RRIRERPPRLPRPRPRPGSNPRP | -0.0638
69 | RRIRERPPRLPRPRPRPGSRPRP | -0.0607
70 | RRIRERPPRLPRPRPRPGTQPRP | -0.0335
71 | RRIRERPPRLPRPRPRPGTSPRP | 1.87
72 | RRIRERPPRLPRPRPRPGVCPRP | 0.155
73 | RRIRERPPRLPRPRPRPGVEPRP | -0.194
74 | RRIRERPPRLPRPRPRPGVNPRP | 0.0154
75 | RRIRERPPRLPRPRPRPGWEPRP | 0.0307
